# Where “and” joins values, the source holds several entries; their conditions need not be identical. Equal entries are not always repeated.
# Assays:
# [1] = substrate: CN1CC=C(c2ccc(Cl)cc2)CC1; assay: (§1) Michaelis-Menten constant was measured against monoamine oxidase B (MAO-B) from beef liver
# [2] = substrate: CN1CC=C(c2ccc(Br)cc2)CC1; assay: as §1
# [3] = substrate: Cc1ccc(C2=CCN(C)CC2)cc1; assay: as §1
# [4] = substrate: CN1CC=C(c2ccc(F)cc2)CC1; assay: as §1
# [5] = substrate: CCc1ccc(C2=CCN(C)CC2)cc1; assay: as §1
# [6] = substrate: COc1ccc(C2=CCN(C)CC2)cc1; assay: Michaelis-Menten constant was measured against monoamine oxidase B (MAO-B) from beef liver; Inactive
protein,measurement,setting,value
Amine oxidase [flavin-containing] B (Bos taurus) (protein) MSSKCDVVVVGGGISGMAAAKLLHDSGLNVIVLEARDRVGGRTYTLRNQKVKYVDLGGSYVGPTQNHILRLSKELGLETYKVNEVERLIHHTKGKSYPFRGSFPSVWNPITYLDHNNLWRTMDDMGREIPSDAPWKAPLAEQWDLMTMKELLDKICWTESSKQLAILFVNLCVTAEIHEVSALWFLWYVKQCGGTTRIFSTSNGGQERKFVGGSGQVSERIMDLLGDRVKLERPVIHIDQTGENVLVETLNHELYEAKYVISAVPPVLGMKIHFNPPLPMMRNQLITRVPLGSVIKSIVYYKEPFWRNMDYCGSMIIEGEEAPVAYALDDTKPDGSYPAIIGFILAHKARKLARLTKEERLKKLCDLYAKVLGSQEALHPVHYEEKNWCEEQYSGGCYTSYFPPGIMTQYGRVLRQPVGRIYFAGTETATHWSGYMEGAVEAGERAAREILHAMGKIPEDEIWLPEPESVDVPAKPITTTFLQRHLPSVPGLLKLIGLTTIFSATALGFLAHKRGLLVRI,Km,[1],180 µM and 200 µM
same,Km,[2],140 µM
same,kcat,[2],1.18 s⁻¹
same,Km,[3],500 µM and 490 µM
same,Km,[4],220 µM
same,kcat,[4],1.55 s⁻¹
same,Km,[5],1890 µM
same,kcat,[5],1.42 s⁻¹
same,Km,[6],940 µM
same,kcat,[6],1.13 s⁻¹

# From ChEMBL document CHEMBL1129640, “Assessment of structural requirements for the monoamine oxidase-B-catalyzed oxidation of 1,4-disubstituted-1,2,3,6-tetrahydropyridine derivatives related to the neurotoxin 1-methyl-4-phenyl-1,2,3,6-tetrahydropyridine” (J Med Chem, 1996)
